Data on four molecules can be found in patent US20230416375A1 (VERSAPEUTICS, published 2023).

Assay [1] has as its target … variants with 7R replaced by other amino acids. Put plainly: peptide microarray substitution scan, Ab5.5 at 1 µg/mL.
For assay [2], the target named is … variants with 12P exchanged by other amino acids. Described as above.
For assay [3], the target named is … variants with 10Y exchanged by other amino acids. The assay is described as above.
Assay [4] has as its target … variants with 13V replaced by other amino acids. Described as above.
Assay [5] deals with … variants with 11D exchanged by other amino acids. Described as above.
Assay [6] addresses … variants with 8T exchanged by other amino acids. The assay is described as above.
Assay [7] addresses T1, wild type peptide LDKNTSRTIYDPVHA (SEQ ID NO:32) (human).
T1 construct: Printed on a peptide microarray; also called Homo sapiens Ryk(206-220)
T1 peptide: LDKNTSRTIYDPVHA
Described as above.

Assay [8] has as its target T2, … variant with 9I exchanged by L (human).
T2 construct: Substitution scan peptide
T2 peptide: LDKNTSRTLYDPVHA
Described as above.

Assay [9] deals with T3, peptides with the highly basic consensus motif TVLNFKRRKMCYKK (SEQ ID NO:30) (human).
T3 construct: Array spots were 15-mers sharing this motif; also called Homo sapiens Ryk(184-197)
T3 peptide: TVLNFKRRKMCYKK
Put plainly: PEPperMAP linear epitope mapping: microarray of 15-mer peptides (14 aa overlap) of human Ryk 134-227, antibody at 10 µg/mL, goat anti-human IgG (Fc) DyLight680.

In assay [10] the target is T4, peptides with the highly basic consensus motif RRKMCYKKLEEVK (SEQ ID NO:31) (human).
T4 construct: Array spots were 15-mers sharing this motif; also called Homo sapiens Ryk(190-202)
T4 peptide: RRKMCYKKLEEVK
Described as above.

Assay [11] has as its target T5, peptides with the highly basic consensus motif SSKNFTVLNFKRRK (SEQ ID NO:29) (human).
T5 construct: Array spots were 15-mers sharing this motif; also called Homo sapiens Ryk(179-192)
T5 peptide: SSKNFTVLNFKRRK
The description is as above.

Assay [12] addresses T6, peptides with the consensus motif TSRTIYDPV (SEQ ID NO:28) (human).
T6 construct: The array spots were adjacent 15-mers of human Ryk 134-227 sharing this motif; also called Homo sapiens Ryk(210-218)
T6 peptide: TSRTIYDPV
The assay is described as above.

Assay [13] has as its target full length human RYK (human, UniProt P34925 26-607). Kind of assay: cell-based or functional assay.
Assay [14] concerns the target … variants with 7R replaced by other amino acids. Kind of assay: peptide microarray substitution scan, Ab5.5_var1 at 100 µg/mL.
The target of assay [15] is … variants with 12P exchanged by other amino acids. Described as above.
The target in assay [16] is … variants with 13V replaced by other amino acids. The assay is described as above.
The target of assay [17] is … variants with 8T exchanged by other amino acids. The assay is described as above.
Assay [18] has as its target T7, full length mouse RYK (mouse, UniProt Q01887 35-594).
T7 construct: Expressed from a plasmid (Macheda et al.) in HEK293, and the lysate was probed by Western blot; also called Mus musculus Ryk
Put plainly: Western blot of RIPA lysates (30 µg per lane) of transfected HEK293 cells, Ab5.5_Var1 at 1 µg/mL, anti-human secondary, LI-COR detection. On the technique in general: In western blotting, separated proteins are transferred to a membrane and probed.

Assay [19] concerns the target T1, wild type peptide LDKNTSRTIYDPVHA (SEQ …). Kind of assay: peptide microarray substitution scan, Ab5.5_var1 at 100 µg/mL.
Assay [20] concerns the target T2, … variant with 9I exchanged by L. Described as above.
Assay [21] deals with T3, peptides with the highly basic …. Kind of assay: PEPperMAP linear epitope mapping: microarray of 15-mer peptides (14 aa overlap) of human Ryk 134-227, antibody at 10 µg/mL, goat anti-human IgG (Fc) DyLight680.
Assay [22] concerns the target T4, peptides with the highly basic …. The assay is described as above.
Assay [23] deals with T5, peptides with the highly basic …. Described as above.
The target in assay [24] is T6, peptides with the consensus motif …. The assay is described as above.
The target of assay [25] is T8, peptides with the basic consensus motif VLNFKRRKMCYKK (SEQ ID NO:36) (human).
T8 construct: Array spots were 15-mers sharing this motif; also called Homo sapiens Ryk(185-197)
T8 peptide: VLNFKRRKMCYKK
Put plainly: PEPperMAP linear epitope mapping: microarray of 15-mer peptides (14 aa overlap) of human Ryk 134-227, antibody at 100 µg/mL, goat anti-human IgG (Fc) DyLight680.

Assay [26] deals with T6, peptides with the consensus motif …. The assay is described as above.
In assay [27] the target is T9, single peptide NSSKNFTVLNFKRRK (SEQ ID NO:35) (human).
T9 construct: also called Homo sapiens Ryk(178-192)
T9 peptide: NSSKNFTVLNFKRRK
The description is as above.

Assay [28] has as its target T4, peptides with the highly basic …. Put plainly: PEPperMAP linear epitope mapping: microarray of 15-mer peptides (14 aa overlap) of human Ryk 134-227, goat anti-human IgG (Fc) DyLight680.

Changes are numbered by the printed parent chain. Where two headings read alike, the source gives them in different places.

B1: Ab5.5 (antibody, V domains shown)
VH: EVKLVESGGDLVQPGGSLKLSCAASGFTFSSYTMSWIRQTPEKRLEWVAYISNGGGGTYYPDTVKGRFTISRDNAKNTLYLQMNSLKSEDTAMYYCTRHGDNGDYWGHGSTLTVSS
VL: DIKMTQSPSSMYASLGERVTITCKASQDINSYLSWIQQKPGKSPKTLIYRANRLVDGVPSRFSGSGSGQDYSLTISSLEYEDMGIYYCLQYDEFPLTFGAGTKLELK
notes: Parental murine variable domains; also called Chimera antibody; Parental
With B1, the % lower spot intensity than the wild type peptide is over 67% in assay [1]; 33% in assay [2]; over 83% in [3]; over 58% in assay [4]; over 83% in assay [5]; 27% in assay [6]. Further, the binding result in [7] and in assay [8] was “binds” throughout.

B2: Ab5.5_var1 (antibody, V domains shown)
VH: EVQLVESGGGLVQPGGSLRLSCAASGFTFSSYTMSWIRQAPGKGLEWVAYISNGGGGTYYPDSVKGRFTISRDNAKNTLYLQMNSLRAEDTAVYYCTRHGDNGDYWGHGSLVTVSS
VL: DIQMTQSPSSLSASVGDRVTITCKASQDINSYLSWIQQKPGKAPKTLIYRANRLVDGVPSRFSGSGSGTDYTLTISSLQPEDFATYYCLQYDEFPLTFGAGTKVEIK
notes: Detected with anti-human IgG (Fc); also called variant 1; v1
With B2, the binding result in assay [9], in [10], in [11], in assay [12], in assay [18] and in assay [19] was “binds” each time. For the same molecule, in assay [20], the binding result is “binds”. In addition, the “IC50 of inhibition of canonical Wnt signaling (luciferase reporter) in HEK 293 STF cells stimulated with 250 ng/mL human Wnt-3a” value in assay [13] was found to be 484 µg/mL. Also, the % lower spot intensity than the wild type peptide in [14] is over 70%; in assay [15], 35%; in assay [16], over 62%; in assay [17] it was 7.5%.

B3: Ab5.5_var2 (antibody, V domains shown)
VH: B2 VH with T78S, H108Q
VL: B2 VL
notes: Detected with anti-human IgG; also called Variant 2; variant 2
On to B3, for which the binding result in [21], in assay [22], in assay [23] and in [24] was “binds” throughout.

B4: Ab5.5_var10 (antibody, V domains shown)
VH: B2 VH with V48A, N53T, P61V, T78S
VL: B2 VL with V19A, A100G
notes: Detected with anti-human IgG; also called variant 10; v10
Take B4: the binding result is recorded as “binds” in assay [25], “binds” in assay [26], “binds” in assay [27] and “no binding (tested: 100 µg/mL)” in assay [28].
